Assay results taken from publication PMC8402785.

Tests used:
[1] = target: recombinant HAdV-C5 fibre knob protein (human adenovirus type 5 (HAdV-C5))
[2] = target: recombinant HAdV-D49 fibre knob protein (human adenovirus type 49 (HAdV-D49)); test: gel electrophoresis with Coomassie staining, with or without denaturing agent; 5 µg and 10 µg of recombinant knob, with or without treatment with a denaturing agent, stained with Coomassie; validation of knob trimerisation

Row | Substance | stoichiometry N [1] | stoichiometry N [2]
1 | recombinant HAdV-C5 fibre knob protein (domain or fragment) | 3 | 
2 | recombinant HAdV-D49 fibre knob protein (domain or fragment) |  | 3
